What is called EC50 is the midpoint of the concentration-response curve.

This note sets out measurements from patent EP4674437A1.

Experiment [1] deals with Cynomolgus monkey DLL3 full-length protein (cynomolgus monkey). Put plainly: FACS on cynoDLL3/CHO-s cells.
For experiment [2], the target named is Human DLL3 full-length protein (human). In words: cell-based or functional assay.
Experiment [3] shares this target. Put plainly: FACS on H1184 cells.

In experiment [1], BI-764532 (antibody) gave an EC50 of 3.42 nM and an Emax (geometric MFI) of 963. In experiment [2], the IC50 (nM), cell killing caused by endocytosis of antibody (DT3C, DMS53/DLL3 cells) was found to be 3.27 nM and the Imax, cell killing caused by endocytosis of antibody (DT3C, DMS53/DLL3 cells) amounted to 86.5. Moreover, in experiment [3], the EC50 was found to be 3.94 nM and the Emax (geometric MFI) came to 1620.
